The Human Domainome abundance scans (Beltran et al. 2025)
± gives the uncertainty stated by the source.

B1: WW domain-containing transcription regulator protein 1, residues 116 to 162; numbered along this chain, Q9GZV5 (parent)
chain: QSYDVTDELPLPPGWEMTFTATGQRYFLNHIEKITTWQDPRKAMNQP

Variants of: B1
Assay: abundance fitness (aPCA) (normalised: wild type 0, dead -1); higher = more abundant; growth selection in yeast, the domain comes from the species named
Details: Homo sapiens

Variant | abundance fitness
W15A | -0.913 ± 0.08
W15Y | -0.351 ± 0.063
L28D | -0.909 ± 0.15
P40K | -0.834 ± 0.13
T36N | -0.754 ± 0.09
I34M | -0.15 ± 0.045
P12G | -0.49 ± 0.041
P13N | -0.022 ± 0.052
L28N | -0.446 ± 0.085
V5R | -0.111 ± 0.035
R41K | -0.688 ± 0.042
L28T | -0.096 ± 0.059
G14C | -0.475 ± 0.042
D4C | 0.049 ± 0.045
I31Y | -0.166 ± 0.1
N29H | -0.278 ± 0.071
N29C | -1.04 ± 0.13
T6Q | -0.142 ± 0.044
L28H | -0.55 ± 0.099
A21R | -0.109 ± 0.036
D7F | -0.312 ± 0.033
T36S | -0.224 ± 0.044
T36V | -0.736 ± 0.04
T20Y | -0.796 ± 0.038

Variant | abundance fitness
W15I | -0.802 ± 0.094
I34C | -0.078 ± 0.035
T36F | -1.05 ± 0.28
L28M | 0.055 ± 0.065
L11G | -0.731 ± 0.029
D4S | -0.089 ± 0.039
S2M | -0.017 ± 0.033
Y3P | 0.087 ± 0.28
N45P | -0.135 ± 0.048
T22N | -0.086 ± 0.041
I34N | -0.343 ± 0.063
H30D | -0.247 ± 0.041
A21Q | -0.272 ± 0.06
P13S | -0.067 ± 0.024
T35W | -0.581 ± 0.029
K33A | -0.209 ± 0.025
G23F | -1.15 ± 0.23
H30R | -0.075 ± 0.029
P47A | -0.06 ± 0.38
T36W | -0.986 ± 0.066
E8Y | -0.248 ± 0.067
V5S | -0.053 ± 0.032
G14D | -0.259 ± 0.032
N45C | -0.089 ± 0.037

Variant | abundance fitness
M17L | -0.067 ± 0.031
Q38V | -0.108 ± 0.036
L11M | -0.07 ± 0.038
P12E | -0.601 ± 0.062
F27T | -0.793 ± 0.067
G14M | -0.505 ± 0.026
L28S | -0.205 ± 0.043
W15N | -0.616 ± 0.028
E32Q | 0.033 ± 0.031
Q46I | -0.044 ± 0.063
G14L | -0.823 ± 0.029
T20K | -0.873 ± 0.13
L28G | -0.583 ± 0.041
H30F | -0.484 ± 0.04
T22G | -0.052 ± 0.024
D4Y | 0.048 ± 0.057
I34K | -0.35 ± 0.067
M17R | -0.279 ± 0.026
Y26T | -0.409 ± 0.05
L11S | -0.609 ± 0.035
A21W | -0.448 ± 0.048
T22H | -0.184 ± 0.035
P12C | -0.716 ± 0.083
K42T | -0.073 ± 0.042

Variant | abundance fitness
T20P | -0.937 ± 0.13
Q46K | -0.164 ± 0.058
K33Q | -0.139 ± 0.038
G14P | -0.378 ± 0.043
M44A | 0.005 ± 0.036
H30S | -0.091 ± 0.027
A43K | -0.006 ± 0.061
L9Y | -0.035 ± 0.037
L11Y | -0.493 ± 0.049
K42A | -0.113 ± 0.03
Q24F | -0.623 ± 0.037
P13C | -0.222 ± 0.044
T6Y | -0.189 ± 0.054
M44P | -0.068 ± 0.027
M44H | -0.085 ± 0.061
A21S | -0.014 ± 0.028
E8V | -0.118 ± 0.035
F27S | -0.579 ± 0.057
P40L | -0.987 ± 0.06
K42W | -0.304 ± 0.053
I31W | -0.08 ± 0.067
Q38W | -0.112 ± 0.033
L28R | -0.112 ± 0.029
P40H | -0.988 ± 0.17

Variant | abundance fitness
R41A | -0.5 ± 0.036
M17H | -0.44 ± 0.05
W37C | -0.52 ± 0.065
T22Q | -0.141 ± 0.045
R25M | -0.232 ± 0.054
P10M | -0.212 ± 0.036
N45E | -0.125 ± 0.047
A21M | -0.079 ± 0.051
V5E | -0.088 ± 0.042
R41F | -0.902 ± 0.25
F27W | -0.13 ± 0.049
W37S | -0.324 ± 0.029
T6F | -0.074 ± 0.052
A43E | -0.018 ± 0.036
T36H | -1.03 ± 0.09
P13H | -0.014 ± 0.03
D7A | -0.049 ± 0.027
Q24T | -0.178 ± 0.04
M17G | -0.366 ± 0.026
P13Y | -0.112 ± 0.051
S2V | -0.148 ± 0.044
P12I | -0.873 ± 0.2
L28A | -0.143 ± 0.043
D4Q | -0.404 ± 0.053

Variant | abundance fitness
I34V | -0.102 ± 0.031
P12Q | -0.494 ± 0.12
H30P | -0.218 ± 0.041
P13A | -0.043 ± 0.032
Q38C | -0.085 ± 0.025
G23P | -0.827 ± 0.047
A43N | 0.046 ± 0.056
N45M | -0.023 ± 0.045
I34A | -0.304 ± 0.031
H30C | -0.333 ± 0.046
T6V | -0.06 ± 0.026
R41C | -0.689 ± 0.086
W37P | -0.51 ± 0.044
S2A | -0.255 ± 0.04
D7Q | -0.178 ± 0.053
P13E | -0.043 ± 0.039
K42E | -0.052 ± 0.044
E16C | -0.28 ± 0.051
V5P | -0.224 ± 0.048
G14K | -0.466 ± 0.027
E32G | -0.091 ± 0.025
H30N | -0.088 ± 0.049
Q38K | -0.037 ± 0.035
L28C | -0.16 ± 0.046

Variant | abundance fitness
Q46S | -0.053 ± 0.041
E8F | -0.302 ± 0.066
E32C | -0.053 ± 0.035
K42C | -0.097 ± 0.048
L9W | -0.087 ± 0.032
D39T | -0.761 ± 0.047
P10D | -0.083 ± 0.043
G23D | -0.361 ± 0.048
E16M | -0.387 ± 0.038
L9F | -0.082 ± 0.041
Y3H | 0.013 ± 0.14
Y26S | -0.54 ± 0.042
P13T | -0.072 ± 0.045
Y3I | 0.274 ± 0.13
P10T | -0.045 ± 0.035
N29Q | -0.779 ± 0.061
A43Q | -0.056 ± 0.051
A43T | 0.027 ± 0.045
Q38I | 0.005 ± 0.045
Q24V | -0.12 ± 0.036
D39I | -0.469 ± 0.051
D4L | -0.147 ± 0.031
P10L | -0.25 ± 0.024
